According to patent publication US20190358242A1, “COMPOSITIONS, KITS, AND METHODS TO INDUCE ACQUIRED CYTORESISTANCE USING STRESS PROTEIN INDUCERS” (FRED HUTCHINSON CANCER RESEARCH CENTER, priority 2017, published 2019):

What was measured:
[1] = tested on: HO-1 protein; assay: Renal cortical HO-1 protein (ELISA) after FeS, SnPP, B12; assay type: in vivo, CD-1 mice; conditions: for HO-1 protein increases (FIG. 21): 4 hrs and 18 hrs after IV injection
Experimental: Effects of FeS, SnPP, and B12 on renal cortical induction of heme oxygenase 1(HO-1). The following experiments assessed the effects of FeS, SnPP, and B12 on the possible induction of the cytoprotective protein HO-1. To this end, mice were injected with each of these agents, as noted above. Either 4 or 18 hrs later, they were anesthetized and the kidneys were removed through a midline abdominal incision. The renal cortices were dissected on ice and then extracted for protein and mRNA. The samples were then assayed for HO-1 protein by ELISA, and HO-1 mRNA by RT-PCR, factored by GAPDH levels. Five normal mice provided control values.

[2] = tested on: ferritin heavy chain; assay: Kidney ferritin heavy chain expression (Western blotting); assay type: in vivo, mice; conditions: 18 hrs following 1 umole SnPP, 1 mg FeS or combined
Experimental: FIG. 32. Ferritin heavy chain expression (as determined by Western blotting) in kidneys 18 hrs following 1 umole tin protoporphyrin (SnPP), 1 mg Fe sucrose (FeS) or combined SnPP+FeS treatment.

[3] = tested on: maleate model of AKI; assay: Maleate model of AKI (800 mg/Kg), FeS/SnPP and FeS/B12; assay type: in vivo, CD-1 mice; conditions: IV 18 hrs before 800 mg/Kg maleate; 18 hrs post maleate; 1 mg FeS, 1 μmole SnPP or B12
From the text: Effects of Fe sucrose (FeS)/tin protoporphyrin (SnPP) on AKI severity. Maleate model of AKI. When injected into rodents, maleate undergoes relatively selective proximal tubule cell uptake via organic anion transporters. Once intracellular accumulation occurs, maleate is a preferred substrate for succinyl-CoA:3-oxoacid CoA transferase. […] Ample levels of CoA are essential for fatty acid “activation”, allowing for their subsequent metabolism through the Krebs cycle, yielding ATP. In the absence of this process, proximal tubule ATP depletion and cell injury result. Additionally, maleate conjugates the sulfhydryl group of glutathione (GSH), culminating in GSH depletion and potential oxidant tubular stress.
The following experiment tested whether FeS, SnPP or combined FeS+SnPP can mitigate this form of acute kidney injury (AKI). Twenty seven mice were subjected to 200 μL IV tail injections of one of the following: 1) vehicle (phosphate buffered saline, PBS; n, 10); 2) 1 mg FeS (American Regent (Shirley, N.Y.; n, 3); 3) 1 μmole SnPP (Frontier Scientific, Logan, Utah; n 7), or FeS+SnPP, n, 7). […] The severity of kidney injury was assessed by determining plasma blood urea nitrogen (BUN) and plasma creatinine (PCr) concentrations.
Maleate model of AKI. […] The severity of AKI was determined 18 hrs post maleate injection by terminal BUN and PCr assessments.

[4] = tested on: haptoglobin protein; assay: Kidney haptoglobin protein (ELISA); assay type: in vivo, CD-1 mice
Experimental: (§1) Thirty-two mice were divided into 4 equal groups: (1) control mice; (2) mice treated with 1 mg of N-Mgb injection (as a bolus through the tail vein); (3) mice treated with […] of SnPP (via tail vein); and (4) mice treated with combined N-Mgb 1 SnPP. After either 4 hours (n=16) or 18 hours (n=16), the mice were deeply anesthetized with pentobarbital (50 mg/kg), the abdomen was opened through a midline abdominal incision, and the kidneys were removed. To determine potential effects on extrarenal organs, a liver lobe and the heart were also removed. The tissues were iced and then extracted for protein and RNA (RNeasy Plus Mini; Qiagen, Valencia, Calif.) and subjected to enzyme linked immunosorbent assay (ELISA) and reverse transcriptase polymerase chain reaction (RT-PCR) for HO-1, haptoglobin, and IL-10 protein and messenger RNAs (mRNAs). Zager et al. J Am Soc Nephrol 2014; 25:998-1012; Zager et al. Am J Physiol 2012; 303:F139-48. As an assessment of renal function, control mice and the 18 hour after N-Mgb+SnPP-treated mice had blood urea nitrogen (BUN) and plasma creatinine levels measured. Additionally, transverse 10% formalin fixed kidney sections ([…]) were cut and stained with hematoxylin and eosin (H&E) and periodic acid Schiff (PAS) to further assess potential injury.

[5] = tested on: HK-2 cells; assay: HK-2 cell injury by MTT assay; assay type: cell-based; conditions: 10 mg/ml, equimolar Na nitrite, 18 hr incubation
Experimental: HK-2 cells (a proximal tubule cell line derived from normal human kidney) were incubated in keratinocyte serum free medium either under normal (control) conditions or in the presence of 10 mg/mL horse skeletal muscle myoglobin or nitrited myoglobin (produced by equimolar Na nitrite addition to 10 mg/ml myoglobin). After 18 hr incubations, the severity of cell injury (% cell death) was assessed by MTT assay. Myoglobin induced 40% cell death (40% decrease in MTT cell uptake), compared to control incubated cells. Nitrite binding to myoglobin reduced cell death by 75%. Thus, nitrite binding is able to reduce myoglobin's cytotoxic effects.

[6] = tested on: IL-10 mRNA; assay: Liver IL-10 mRNA (RT-PCR); assay type: in vivo, CD-1 mice
Experimental: as §1

[7] = tested on: HO-1 mRNA; assay: Liver HO-1 mRNA (RT-PCR); assay type: in vivo, CD-1 mice
Experimental: as §1

[8] = tested on: IL-10 mRNA; assay: Kidney IL-10 mRNA (RT-PCR); assay type: in vivo, CD-1 mice
Experimental: as §1

[9] = tested on: haptoglobin protein; assay: Liver haptoglobin protein (ELISA); assay type: in vivo, CD-1 mice; set-up: unit not given beside the values
Experimental: as §1

[10] = tested on: haptoglobin protein; assay: Cardiac haptoglobin protein (ELISA); assay type: in vivo, CD-1 mice
Experimental: as §1

[11] = tested on: IL-10 mRNA; assay: Cardiac IL-10 mRNA (RT-PCR); assay type: in vivo, CD-1 mice
Experimental: as §1

[12] = tested on: haptoglobin mRNA; assay: Cardiac haptoglobin mRNA (RT-PCR); assay type: in vivo, CD-1 mice
Experimental: as §1

[13] = tested on: HO-1 mRNA; assay: Kidney HO-1 mRNA (RT-PCR); assay type: in vivo, CD-1 mice
Experimental: as §1

[14] = tested on: haptoglobin mRNA; assay: Liver haptoglobin mRNA (RT-PCR); assay type: in vivo, CD-1 mice
Experimental: as §1

[15] = tested on: IL-10 protein; assay: Liver IL-10 protein (ELISA); assay type: in vivo, CD-1 mice
Experimental: as §1

[16] = tested on: HO-1 protein; assay: Kidney HO-1 protein (ELISA); assay type: in vivo, CD-1 mice
Experimental: as §1

[17] = Serum creatinine after 2 hr subcutaneous infusion of nitrited myoglobin + SnPP; assay type: in vivo, mice; conditions: 2 hr SC infusion 1, 3, 6, 12, or 25 mg/Kg + 1 μmole SnPP; 18 hrs later
Experimental: Mice were subjected to a 2 hr subcutaneous infusion of 1, 3, 6, 12, or 25 mg/Kg of nitrited myoglobin (holding SnPP at a constant dose of 1 μmole). Eighteen hrs later, potential renal injury was assessed by measuring serum creatinine concentrations.
An obvious concern by applying this prophylactic strategy to patients is potential renal and/or extrarenal toxicities. […] Furthermore, it was previously documented in a cell culture system that nitrite addition markedly reduces myoglobin's cytotoxic effects by 75% (unpublished data, 2014). To assess the potential in vivo margin of safety for N-Mgb+SnPP (see Supplemental FIGS.), the maximal amount of N-Mgb that could be given to mice before nephrotoxicity was observed was tested. Up to 25 times the employed N-Mgb dose (with a constant SnPP dose) could be administered (over 2 hours) without induction of nephrotoxicity (normal BUN and creatinine, 18 hours later).

[18] = tested on: glycerol model of rhabdomyolysis-induced AKI; assay: Glycerol model of rhabdomyolysis-induced AKI; assay type: in vivo, CD-1 mice; conditions: IV pretreatment 18 h before glycerol; 18 hours after glycerol
Experimental: Assessments of cytoresistance. Glycerol model of rhabdomyolysis-induced AKI. Twenty mice were divided into 4 equal groups (controls, mice treated with N-Mgb, SnPP, and mice treated with N-Mgb+SnPP tail vein injections) as described previously. 18 hours later, the mice were briefly anesthetized with isoflurane and immediately injected with 9 mL/kg of 50% glycerol, administered in equally divided doses into each hind limb. At 18 hours after glycerol injection, the mice were anesthetized with pentobarbital, the abdomen was opened, a blood sample for BUN and creatinine assessments was obtained from the vena cava, and the kidneys were resected. The control post-glycerol group and the N-Mgb+SnPP-pretreated glycerol group had kidney sections stained with H&E.
To assess whether the previously determined plasma and kidney HO-1 and haptoglobin levels correlated with degrees of cytoresistance, additional mice were injected with 0, 2.5, or 5 mg of N-Mgb […] of SnPP (n=3 mice per group). Eighteen hours later, all mice were subjected to the glycerol AKI model as described previously. Severities of AKI were determined 18 hours after glycerol injection by BUN and plasma creatinine analyses.
Calculations and statistics. All values are given as the mean […] standard error of the mean. Statistical comparisons were made by unpaired Student's t test. […]

[19] = tested on: HO-1 mRNA; assay: Cardiac HO-1 mRNA (RT-PCR); assay type: in vivo, CD-1 mice
Experimental: as §1

[20] = tested on: HO-1 protein; assay: Liver HO-1 protein (ELISA); assay type: in vivo, CD-1 mice; set-up: unit not given beside the values
Experimental: as §1

[21] = tested on: HO-1 protein; assay: Cardiac HO-1 protein (ELISA); assay type: in vivo, CD-1 mice; conditions: 4 h after IV injection
Experimental: as §1

[22] = tested on: IL-10 protein; assay: Cardiac IL-10 protein (ELISA); assay type: in vivo, CD-1 mice
Experimental: as §1

[23] = tested on: haptoglobin mRNA; assay: Kidney haptoglobin mRNA (RT-PCR); assay type: in vivo, CD-1 mice
Experimental: as §1

[24] = tested on: IL-10 protein; assay: Kidney IL-10 protein (ELISA); assay type: in vivo, CD-1 mice
Experimental: as §1

[25] = 4 h after IV injection, N-Mgb 1 mg, SnPP 1 mmol [sic]

## iron sucrose [FeS]
[1]
  HO-1 protein increases (FIG. 21): marked HO-1 protein increases within 4 hrs and persists for 18 hrs
[1]; 18 hr time point
  Renal cortical HO-1 protein levels: remained elevated at the 18 hr time point, particularly in the case of FeS administration
[2]
  Ferritin heavy chain protein levels in kidney: strong ferritin inducer
[3]
  Severity of maleate-induced AKI (BUN/PCr), in words: Neither SnPP alone nor FeS alone significantly altered the severity of renal injury

## cyanocobalamin [B12]
[1]
  HO-1 protein increases (FIG. 21): marked HO-1 protein increases within 4 hrs and persists for 18 hrs

B1: N-Mgb: horse myoglobin converted into a nitrited form by addition of equimolar sodium nitrite (protein, UniProt P68082 2-154, looked up)
Myoglobin: GLSDGEWQQVLNVWGKVEADIAGHGQEVLIRLFTGHPETLEKFDKFKHLKTEAEMKASEDLKKHGTVVLTALGGILKKKGHHEAELKPLAQSHATKHKIPIKYLEFISDAIIHVLHSKHPGDFGADAQGAMTKALELFRNDIAAKYKELGFQG
modifications: nitrite-modified
notes: horse myoglobin converted into a nitrited form by addition of equimolar sodium nitrite
[4]; 18-hour time point, vs combination
  Renal haptoglobin protein levels, in words: comparably increased
[4]; [25]
  Kidney Haptoglobin protein: 17.6 ± 1^
[4]; 18 h after IV injection
  Kidney protein Haptoglobin: 183.8 ± 20.4
[5]
  Reduction of myoglobin-induced cell death by nitrite binding: 75%
[6]; 4 h after IV injection
  Liver mRNA IL-10: 0.67 ± 0.46
[6]; 18 h after IV injection
  Liver mRNA IL-10: 0.06 ± 0.02
[7]; 4 h after IV injection
  Liver mRNA HO-1: 1.83 ± 0.33
[7]; 18 h after IV injection
  Liver mRNA HO-1: 0.82 ± 0.07
[8]; 4-hour time point, agent alone
  Impact on renal IL-10 mRNA levels, in words: either minimal or no impact
[8]; [25]
  Kidney mRNA IL-10: 1.45 ± 0.6
[8]; 18 h after IV injection
  Kidney mRNA cortex IL-10: 0.43 ± 0.10
[9]; 4 h after IV injection
  Liver protein Haptoglobin: 359.5 ± 39.6
[9]; 18 h after IV injection
  Liver protein Haptoglobin: 358.8 ± 32.8
[10]; 4 h after IV injection
  Cardiac protein Haptoglobin: 40.4 ± 8.6
[10]; 18 h after IV injection
  Cardiac protein Haptoglobin: 249.6 ± 15.0
[11]; 4 h after IV injection
  Cardiac mRNA IL-10: 0.86 ± 0.11
[11]; 18 h after IV injection
  Cardiac mRNA IL-10: 0.67 ± 0.10
[12]; 4 h after IV injection
  Cardiac mRNA Haptoglobin: 0.75 ± 0.10
[12]; 18 h after IV injection
  Cardiac mRNA Haptoglobin: 0.53 ± 0.21
[13]; [25]
  Kidney mRNA HO-1: 3.38 ± 0.38
[13]; 4 hour, agent alone
  Renal HO-1 mRNA increase, in words: only modest increases
[13]; 18 h after IV injection
  Kidney mRNA cortex HO-1: 0.58 ± 0.18
[14]; 4 h after IV injection
  Liver mRNA Haptoglobin: 0.98 ± 0.1
[14]; 18 h after IV injection
  Liver mRNA Haptoglobin: 0.91 ± 0.07
[15]; 4 h after IV injection
  Liver protein IL-10: 286 ± 32
[15]; 18 h after IV injection
  Liver protein IL-10: 5988 ± 549
[16]; 18-hour time point, agent alone
  Renal HO-1 protein increase, in words: only relatively small HO-1 protein increases
[16]; [25]
  Kidney HO-1 protein: 36.1 ± 2.9
[16]; 18 h after IV injection
  Kidney protein HO-1: 30 ± 6
[17]
  Serum creatinine concentration change: No significant increase
[18]
  Protection against glycerol-induced AKI judged by BUN/creatinine levels: modest protection
[19]; 4 h after IV injection
  Cardiac mRNA HO-1: 0.09 ± 0.01
[19]; 18 h after IV injection
  Cardiac mRNA HO-1: 0.08 ± 0.01
[20]; 4 h after IV injection
  Liver protein HO-1: 17 ± 2
[20]; 18 h after IV injection
  Liver protein HO-1: 14.9 ± 0.3
[21]
  Cardiac protein HO-1: 1.64 ± 0.19
[22]; 4 h after IV injection
  Cardiac Protein IL-10: 21 ± 12
[22]; 18 h after IV injection
  Cardiac protein IL-10 (L-10 [sic]): 14.5 ± 10^
[23]; [25]
  Kidney mRNA Haptoglobin: 1.94 ± 0.31
[23]; 18 h after IV injection
  Kidney mRNA cortex Haptoglobin: 0.24 ± 0.04
[24]; [25]
  Kidney IL-10 protein: 265 ± 54
[24]; 18 h after IV injection
  Kidney protein IL-10: 292 ± 54
[24]; 18 hours, agent alone
  Renal IL-10 protein increase, in words: absence of IL-10 protein increases
